Bridge positions count the residues as written; N and C are the ends. Ends that are not written are not given here.
Assays:
[1] = tested on: wild‐type (Gprc6a +/+) and global knock out (Gprc6a −/−) mice; assay: Serum FGF-21 (ELISA) after intraperitoneal injection in mice; type: in vivo, mouse; details: 2 nmol/g IP, 24 h, n ≥ 5
Experimental: 8‐week‐old wild‐type (Gprc6a ^ +/+ ) and global knock out (Gprc6a ^ −/− ) mice were injected intraperitoneally with Ocn 20–29 (2 nmol/g body weight), or vehicle (saline; 10 μL/g body weight). Serum was collected at 24 h after intraperitoneal injection. Blood glucose levels were measured by using blood glucose strips and the Accu‐Check glucometer as described.[7], [31] A mouse IL‐6 ELISA Kit was purchased from Invitrogen (Waltham, MA, USA). Rat/Mouse FGF‐21ELISA Kit was obtained from Millipore Sigma (Burlington, MA, USA).
The Gprc6a ^ −/− mouse model was created by replacing exon 2 of the GPRC6A gene with the hygromycin resistance gene, as described previously.[32] Mice were maintained and used in accordance with recommendations as described (National Research Council 1985; Guide for the Care and Use of Laboratory Animals Department of Health and Human Services Publication NIH 86–23, Institute on Laboratory Animal Resources, Rockville, MD) and following guidelines established by the University of Tennessee Health Science Center Institutional Animal Care and Use Committee. The animal study protocol was approved by the institutional review boards at University of Tennessee Health Science Center Institutional Animal Care and Use Committee.

human GPRC6A isoform 2 [2] = target: T1, human GPRC6A isoform 2 (Homo sapiens, UniProt Q5T6X5); assay: cAMP accumulation in HEK-293 cells transfected with human GPRC6A isoform 2; type: cell-based; details: isoform 2; Ocn 1.73-26.0 nM; 1 mM calcium; 40 min; Figure 2C
T1 construct: expressed in transfected cells; host or cells: HEK-293
T1 sequence (Q5T6X5 19-751 isoform Q5T6X5-2 limits assumed): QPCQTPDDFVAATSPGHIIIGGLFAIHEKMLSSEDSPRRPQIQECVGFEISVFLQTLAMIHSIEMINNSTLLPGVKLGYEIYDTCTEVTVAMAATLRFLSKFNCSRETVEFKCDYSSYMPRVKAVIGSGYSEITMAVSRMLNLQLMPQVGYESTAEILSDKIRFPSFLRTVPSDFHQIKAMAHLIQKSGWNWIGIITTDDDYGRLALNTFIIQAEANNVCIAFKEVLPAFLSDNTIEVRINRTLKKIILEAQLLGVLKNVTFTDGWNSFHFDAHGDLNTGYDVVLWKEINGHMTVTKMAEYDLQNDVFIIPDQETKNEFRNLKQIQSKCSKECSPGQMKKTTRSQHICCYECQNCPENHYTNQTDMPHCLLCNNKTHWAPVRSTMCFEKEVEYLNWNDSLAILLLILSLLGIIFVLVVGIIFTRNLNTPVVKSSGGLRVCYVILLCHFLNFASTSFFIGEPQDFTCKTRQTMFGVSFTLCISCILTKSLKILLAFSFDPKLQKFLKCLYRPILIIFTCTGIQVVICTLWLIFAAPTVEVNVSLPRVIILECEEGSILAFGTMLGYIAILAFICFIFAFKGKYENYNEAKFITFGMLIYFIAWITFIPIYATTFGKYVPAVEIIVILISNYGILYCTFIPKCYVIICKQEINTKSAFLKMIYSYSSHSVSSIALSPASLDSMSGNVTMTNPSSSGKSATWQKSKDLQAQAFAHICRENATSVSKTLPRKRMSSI
Experimental: (§1) HEK‐293 transfected with human GPRC6A isoform cDNA plasmids cells (10^5 cells/well)[30] were cultured in 24‐well plates in DMEM supplemented with 10% fetal bovine serum and 1% penicillin/streptomycin (100 U/mL of penicillin and 100 μg/mL of streptomycin) for 48 h followed by 4 h incubation in DMEM/F12 containing 0.1% BSA and 0.5 mM IBMX to achieve quiescence and preventing cAMP degradation. Quiescent cells were treated with vehicle control, various ligands at concentration as indicated for 40 min at 37°C. Then, the reaction was stopped, and the cells lysed with 0.5 mL 0.1 N HCl. cAMP levels were measured by using Cyclic AMP EIA kit (Cayman Chemical; Ann Arbor, MA, USA) following the manufacture's protocol.

human GPRC6A isoform 3 [3] = target: T2, human GPRC6A isoform 3 (Homo sapiens, UniProt Q5T6X5); assay: cAMP accumulation in HEK-293 cells transfected with human GPRC6A isoform 3; type: cell-based; details: isoform 3; Ocn 1.73-26.0 nM; 1 mM calcium; 40 min; Figure 2C
T2 construct: expressed in transfected cells; host or cells: HEK-293
T2 sequence (Q5T6X5 19-855 isoform Q5T6X5-3 limits assumed): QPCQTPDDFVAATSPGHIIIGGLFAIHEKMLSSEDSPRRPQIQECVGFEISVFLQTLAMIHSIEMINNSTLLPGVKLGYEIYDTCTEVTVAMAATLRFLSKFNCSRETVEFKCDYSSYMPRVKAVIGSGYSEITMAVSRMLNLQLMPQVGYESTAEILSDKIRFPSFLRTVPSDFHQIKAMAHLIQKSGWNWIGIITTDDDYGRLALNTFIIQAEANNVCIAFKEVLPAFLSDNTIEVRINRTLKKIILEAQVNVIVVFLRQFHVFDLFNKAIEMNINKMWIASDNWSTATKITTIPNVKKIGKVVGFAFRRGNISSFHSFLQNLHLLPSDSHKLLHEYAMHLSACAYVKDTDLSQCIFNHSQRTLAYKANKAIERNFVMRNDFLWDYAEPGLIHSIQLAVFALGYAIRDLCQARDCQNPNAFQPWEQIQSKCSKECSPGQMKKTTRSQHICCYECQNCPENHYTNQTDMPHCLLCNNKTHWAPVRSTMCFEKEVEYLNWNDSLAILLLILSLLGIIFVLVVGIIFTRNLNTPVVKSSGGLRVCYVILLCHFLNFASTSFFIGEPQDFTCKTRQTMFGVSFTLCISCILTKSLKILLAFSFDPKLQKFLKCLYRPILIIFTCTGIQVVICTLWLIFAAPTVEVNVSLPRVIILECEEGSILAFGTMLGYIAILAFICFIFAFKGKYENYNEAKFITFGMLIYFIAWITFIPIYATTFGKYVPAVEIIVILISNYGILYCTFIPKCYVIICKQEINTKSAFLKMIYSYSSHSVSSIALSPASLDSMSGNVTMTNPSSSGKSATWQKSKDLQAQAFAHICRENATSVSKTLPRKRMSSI
Experimental: as §1

human GPRC6A isoform 2 [4] = target: T1, human GPRC6A isoform 2; assay: ERK activation (ELISA) in HEK-293 cells transfected with human GPRC6A isoform 2; type: cell-based; details: Ocn 1.73-26.0 nM, 1 mM calcium, 15 min, Figure 2B
Experimental: (§2) All culture reagents were from Invitrogen (Waltham, MA, USA). Human embryonic kidney HEK‐293 cells were obtained from American Type Culture Collection and cultured in DMEM medium supplemented with 10% fetal bovine serum and 1% Penicillin/Streptomycin (P/S). Briefly, HEK‐293 cells transfected with/without human GPRC6A isoforms cDNA plasmids were starved by overnight incubation in serum‐free DMEM/F12 containing 0.1% bovine serum albumin (BSA) and stimulated with various ligands at different doses. […]

human GPRC6A isoform 3 [5] = target: T2, human GPRC6A isoform 3; assay: ERK activation (ELISA) in HEK-293 cells transfected with human GPRC6A isoform 3; type: cell-based; details: Ocn 1.73-26.0 nM, 1 mM calcium, 15 min, Figure 2B
Experimental: as §2

| Substance | Serum FGF-21 response ([1]; Gprc6a −/− mice) | Serum FGF-21 level versus vehicle ([1]; wild-type Gprc6a +/+ mice) | Ocn-induced cAMP accumulation, dose response (human GPRC6A isoform 2 [2]) | Ocn-induced cAMP accumulation, dose response (human GPRC6A isoform 3 [3]) | Ocn-induced ERK activation, dose response (human GPRC6A isoform 2 [4]) | Ocn-induced ERK activation, dose response (human GPRC6A isoform 3 [5]) |
| --- | --- | --- | --- | --- | --- | --- |
| REVCELNPDC (disulfide 4-10 (inferred)) [Ocn 20–29, synthesized human Ocn decapeptide fragment located in the middle of the protein] | lost | significant increase |  |  |  |  |
| osteocalcin (YLYQWLGAPVPYPDPLEPRREVCELNPDCDELADHIGFQEAYRRFYGPV; not fully specified; ends and bridges not checked; UniProt P02818 52-100, looked up) [Ocn 1–49, full human Ocn (49 aa) synthesized by BioMatik; methods also describe decarboxylated Ocn purified from bovine tibial bone, reference compound] |  |  | complete loss of cAMP activation | maintained the cAMP response | attenuated ERK response | attenuation of Ocn‐induced ERK stimulation |

Source: paper PMC11467737, “Osteocalcin binds to a GPRC6A Venus fly trap allosteric site to positively modulate GPRC6A signaling” (FASEB BioAdvances, 2024)
